# Changes are numbered by the printed parent chain.
# B1: Bc-12: patient derived human scFv antibody against activated αvβ3 with RGD motif in CDR-H3; cDNA ATCC PTA-6303 (protein)
# scFv: MAQVQLVQSGAEVKKPGASVKVSCKASGYTFSNYGITWVRQAPGQGLEWMGWINNGNTHYAQKFQGRVTMTTDTSTSTAYMELRSLRSDDTAVYYCARDPRGDDEPYWGQGTLVTVSSGGGGSGGGGSGGGGSEIVLTQSPLSLPVTLGQPASISCRSSQNLVYSDGNTYLSWFQQRPGQSPRRLIYKVSNRDSGVPDRFSGSGSGTDFTLKISRVEAEDIGVYYCMQGTHWPPRTFGQGTKVEIKRGLGGLVDYKDDDDK
# B2: Mut-12: RGE containing mutant version of scFv Bc-12 (protein)
# chain: B1 scFv with D103E
# Legend:
# tumor cell integrin αvβ3 = biological target: T1, tumor cell integrin αvβ3 (Homo sapiens, UniProt P05106+P06756); test: Flow cytometry, scFv binding to BMS cells in fresh human plasma; conditions: saturable binding
# T1 construct: Primary metastatic cells from blood samples of stage IV breast cancer patients (BCM1, BCM2, BMS) were isolated; endogenous in cells; host or cells: BMS cells (primary metastatic breast cancer cells from patient blood)
# Description: FIG. 4. Patient derived ligand mimetic scFvs Bc-12 and Bc-15 against activated αvβ3 are internalized and bind to breast cancer cells in human plasma and affect breast cancer survival. Flow cytometric analysis with human metastatic breast cancer cells (BMS) isolated from a patient blood sample. All binding and washing steps were done in fresh human plasma prepared from blood anticoagulated with 50 nM PPACK.
# Flow cytometry. scFv binding to human tumor cells was analyzed by flow cytometry, initially with cloned scFv phage and then with purified scFv protein. Per sample, 2×10^5 tumor cells were blocked with goat serum and incubated either with scFv phage (2-5×10^10) (1 h at RT) followed by mouse anti-M13 mAb (Serotec) (30 min on ice) and goat FITC-anti mouse (Pierce) (30 min on ice), or with purified scFv (1.25 to 40 μg/ml, routinely 10 to 15 μg/ml) (45 min on ice), followed by mouse anti-FLAG mAb M2 (Sigma) (30 min on ice) and goat FITC-anti mouse. […] All samples were counter stained with propidium iodide (PI) and analyzed on a Becton-Dickinson FACScan, with live gate set to exclude PI positive cells.
# Antimetastatic activity of scFv antibodies against activated αvβ3 inhibit hematogenous breast cancer metastasis in vivo. […] The antibodies bound the cells in a saturable manner with half maximal binding measured at 40 nM scFv (1 μg/ml) (FIG. 4).
# BMS breast cancer cells = test: Tumor cell arrest during blood flow; type: cell-based; conditions: 3 μM scFv, human blood, collagen I matrix, shear rate 50 s^−1
# Description: FIGS. 3A, 3B, 3C, 3D, 3E. scFv Bc-12 and Bc-15 inhibit αvβ3 mediated adhesive breast cancer cell functions. (A) Adhesion of BMS human breast cancer cells to fibrinogen (Fg), vitronectin (VN) or type I collagen (Col I) in the absence or presence of 3 μM Bc-12, Bc-15 or their RGE mutants Mut-12, Mut-15, compared to 200 μM GRGDSPK peptide (SEQ ID NO: 11). Protein coating concentrations: 10 μg/ml (VN, Col I) or 20 μg/ml (Fg). Adhesion time: 30 min at 37° C. (B) Effect of scFvs on haptotactic BMS cell migration toward a fibrinogen substrate (16 hrs at 37° C. in transwell chambers with or without 2 μM Bc-12, Bc-15 or their RGE mutants Mut-12 or Mut-15, compared to 200 μM GRGDSPK peptide) (SEQ ID NO: 11). (C) Effect of scFvs on breast cancer cell arrest during blood flow. Metastatic BMS cells, labeled with hydroethidine, were suspended in human blood (anticoagulated with 50 nM PPACK) and perfused over a collagen I matrix at a venous wall shear rate of 50 s^−1. Under these conditions, breast cancer cells arrest by αvβ3 mediated binding to adherent, thrombus forming platelets. Tumor cell adhesion was quantified by image acquisition at 30 predefined positions during blood flow. Left: representative images of platelet signal (thrombi, green fluorescence) and tumor cell signal (red fluorescence) at identical x,y positions. […]
# Tumor cell arrest during bloodflow. Breast cancer cell arrest during blood flow and interaction with platelets was measured as described. […] Adhesive events and cell interactions were visualized and recorded by fluorescence video microscopy and quantified by image acquisition at 30 predefined positions followed by computerized image analysis (MetaMorph, Universal Imaging). Tumor cells were stained with hydroethidine (red fluorescence) (20 μg/ml, 30 min, 37° C.), washed, and mixed with blood containing 10 μM mepacrine (green fluorescence). Blood cells, tumor cells, and platelets acquired green fluorescence and were visualized at 488/515 nm (excitation/emission). Tumor cells were identified by their unique red fluorescence at 543/590 nm. […]
# [1] = tested on: human breast cancer cell lines, isolated from patient blood samples; test: Growth of breast cancer cell cultures in presence of scFv; type: cell-based; conditions: 2 μM scFv, 4 days after seeding
# T1 sequence (P06756 31-889 limits assumed): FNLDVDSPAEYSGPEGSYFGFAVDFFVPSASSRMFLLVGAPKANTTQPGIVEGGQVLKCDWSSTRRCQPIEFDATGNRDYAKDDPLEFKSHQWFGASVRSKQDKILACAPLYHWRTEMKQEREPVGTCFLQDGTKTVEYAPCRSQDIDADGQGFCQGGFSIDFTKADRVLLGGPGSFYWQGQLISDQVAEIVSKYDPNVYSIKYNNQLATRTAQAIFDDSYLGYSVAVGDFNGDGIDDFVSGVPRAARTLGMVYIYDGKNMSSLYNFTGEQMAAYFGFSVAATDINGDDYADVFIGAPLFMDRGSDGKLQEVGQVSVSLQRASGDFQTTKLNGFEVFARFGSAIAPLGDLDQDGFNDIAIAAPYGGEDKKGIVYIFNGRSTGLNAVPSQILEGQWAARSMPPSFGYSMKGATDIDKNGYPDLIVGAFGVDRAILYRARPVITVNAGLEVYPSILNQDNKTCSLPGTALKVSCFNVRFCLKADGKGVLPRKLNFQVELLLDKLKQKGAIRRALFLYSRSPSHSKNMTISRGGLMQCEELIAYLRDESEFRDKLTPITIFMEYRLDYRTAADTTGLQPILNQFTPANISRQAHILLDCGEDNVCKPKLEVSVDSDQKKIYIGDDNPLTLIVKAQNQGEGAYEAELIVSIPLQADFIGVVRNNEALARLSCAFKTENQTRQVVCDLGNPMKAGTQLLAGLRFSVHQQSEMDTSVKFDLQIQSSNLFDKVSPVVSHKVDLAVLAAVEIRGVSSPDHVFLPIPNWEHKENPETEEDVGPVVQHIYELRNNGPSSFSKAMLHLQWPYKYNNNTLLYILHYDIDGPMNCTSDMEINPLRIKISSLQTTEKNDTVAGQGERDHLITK
# T1 sequence (P06756 891-1048 partner limits assumed): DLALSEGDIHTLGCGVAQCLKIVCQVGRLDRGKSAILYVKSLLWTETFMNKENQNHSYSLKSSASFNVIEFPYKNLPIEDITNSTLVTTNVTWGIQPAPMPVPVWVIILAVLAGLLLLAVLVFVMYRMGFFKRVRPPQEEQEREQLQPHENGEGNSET
# T1 sequence (P05106 27-788): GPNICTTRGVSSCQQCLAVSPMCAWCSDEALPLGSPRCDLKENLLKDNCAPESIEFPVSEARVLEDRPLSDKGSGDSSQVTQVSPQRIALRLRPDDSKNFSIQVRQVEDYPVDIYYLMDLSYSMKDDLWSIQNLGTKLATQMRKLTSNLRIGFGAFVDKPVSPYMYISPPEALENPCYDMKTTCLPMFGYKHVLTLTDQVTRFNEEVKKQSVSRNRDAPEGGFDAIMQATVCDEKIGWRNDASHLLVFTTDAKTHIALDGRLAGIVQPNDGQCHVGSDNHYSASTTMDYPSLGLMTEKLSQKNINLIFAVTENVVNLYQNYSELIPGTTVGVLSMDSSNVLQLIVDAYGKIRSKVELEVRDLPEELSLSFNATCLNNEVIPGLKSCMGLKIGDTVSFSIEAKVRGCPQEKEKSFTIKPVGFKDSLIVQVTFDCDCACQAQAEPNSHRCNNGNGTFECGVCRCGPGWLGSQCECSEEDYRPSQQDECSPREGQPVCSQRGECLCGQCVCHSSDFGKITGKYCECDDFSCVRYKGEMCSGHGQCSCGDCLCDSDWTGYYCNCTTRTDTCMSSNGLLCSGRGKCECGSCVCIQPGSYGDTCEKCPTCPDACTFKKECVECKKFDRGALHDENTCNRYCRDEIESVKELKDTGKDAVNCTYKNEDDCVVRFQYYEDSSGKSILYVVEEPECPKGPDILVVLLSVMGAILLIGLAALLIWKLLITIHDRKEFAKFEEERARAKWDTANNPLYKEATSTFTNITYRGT
Molecule,half maximal binding (tumor cell integrin αvβ3) [µg/mL],EC50 (tumor cell integrin αvβ3; read-out: half maximal binding) [nM],breast cancer cell arrest during blood flow (BMS breast cancer cells),growth of breast cancer cell lines [1]
B1,1,40,efficiently inhibited,retarded
B2,–,–,no effect,no effect

# — patent US7271245B2, “Methods and compositions for inhibition of metastasis” (The Scripps Research Institute, priority 2004, dated 2007)
